Experimental findings from publication doi:10.1101/2023.12.08.570889 (bioRxiv, 2023) are described below.

Targets include CD40 (Homo sapiens (assumed), UniProt P25942); IL17A (Homo sapiens (assumed), UniProt Q16552); IL36R (Homo sapiens (assumed), UniProt Q9HB29).
Common to all, as to assay: SPR

Sequence of CD40 (P25942 21-193): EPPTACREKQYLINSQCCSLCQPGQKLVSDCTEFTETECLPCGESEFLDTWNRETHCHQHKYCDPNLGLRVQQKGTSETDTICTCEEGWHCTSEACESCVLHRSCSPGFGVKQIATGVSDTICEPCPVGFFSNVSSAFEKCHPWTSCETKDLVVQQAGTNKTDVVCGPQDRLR
Sequence of IL36R (Q9HB29 20-335): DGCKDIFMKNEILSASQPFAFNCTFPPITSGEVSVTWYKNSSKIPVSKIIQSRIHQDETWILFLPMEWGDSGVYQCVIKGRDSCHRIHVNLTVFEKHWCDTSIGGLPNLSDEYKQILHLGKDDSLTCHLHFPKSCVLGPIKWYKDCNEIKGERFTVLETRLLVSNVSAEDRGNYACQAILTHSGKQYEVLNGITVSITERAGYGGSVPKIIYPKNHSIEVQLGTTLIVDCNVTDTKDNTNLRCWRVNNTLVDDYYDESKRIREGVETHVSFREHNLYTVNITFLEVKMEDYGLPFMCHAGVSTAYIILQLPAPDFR
Sequence of IL17A (Q16552 24-155): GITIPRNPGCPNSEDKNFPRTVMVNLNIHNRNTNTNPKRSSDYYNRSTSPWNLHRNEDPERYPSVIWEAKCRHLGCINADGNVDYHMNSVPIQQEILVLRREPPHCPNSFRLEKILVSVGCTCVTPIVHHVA

B1: Ravagalimab (Fab, V domains shown)
VH: EVQLVESGGGLVKPGGSLRLSCAASGFTFSDYGMNWVRQAPGKGLEWIAYISSGRGNIYYADTVKGRFTISRDNAKNSLYLQMNSLRAEDTAVYYCARSWGYFDVWGQGTTVTVSS
VL: DIVMTQSPDSLAVSLGERATINCKSSQSLLNRGNQKNYLTWFQQKPGQPPKLLIYWASTRESGVPDRFSGSGSGTDFTLTISSLQAEDVAVYYCQNDYTYPLTFGQGTKLEIK
Regarding B1, the binding result with CD40 is listed as “binds”.

B2: Afasevikumab (Fab, V domains shown)
VH: EVQLVESGGGLVQPGRSLRLSCAASGFTFDDYAMHWVRQAPGKGLEWVSGINWSSGGIGYADSVKGRFTISRDNAKNSLYLQMNSLRAEDTALYYCARDIGGFGEFYWNFGLWGRGTLVTVSS
VL: not shown
With B2, in the assay with IL17A, the binding result was “binds”.

B3: Spesolimab (Fab, V domains shown)
VH: QVQLVQSGAEVKKPGASVKVSCKASGYSFTSSWIHWVKQAPGQGLEWMGEINPGNVRTNYNENFRNKVTMTVDTSISTAYMELSRLRSDDTAVYYCTVVFYGEPYFPYWGQGTLVTVSS
VL: QIVLTQSPGTLSLSPGERATMTCTASSSVSSSYFHWYQQKPGQAPRLWIYRTSRLASGVPDRFSGSGSGTDFTLTISRLEPEDAATYYCHQFHRSPLTFGAGTKLEIK
Take B3: the binding result in the assay with IL36R is listed as “binds”.
